Reference: the Human Domainome abundance scans (Beltran et al. 2025)
± gives the uncertainty stated by the source.

B1: Homeobox protein SIX6, residues 134 to 184; numbered along this chain, O95475 (parent)
chain: CFKERTRHLLREWYLQDPYPNPSKKRELAQATGLTPTQVGNWFKNRRQRDR

Variants of: B1
Experiment: abundance fitness (aPCA) (normalised: wild type 0, dead -1); higher = more abundant; growth selection in yeast, the domain comes from the species named
Conditions: Homo sapiens

Variant | abundance fitness
CFKERTRHLLREWYLQDPYPNPSKKRELAQALGLTPTQVGNWFKNRRQRDR | -0.384 ± 0.065
CFKERTRHLLREWYLQDPYPNPSKKRELAQAPGLTPTQVGNWFKNRRQRDR | -0.783 ± 0.17
CFKERTRHLLREWYLQDPYPNPSKKRELAQAQGLTPTQVGNWFKNRRQRDR | -1.01 ± 0.26
CFKERTRHLLREWYLQDPYPNPSKKRELAQARGLTPTQVGNWFKNRRQRDR | -0.799 ± 0.085
CFKERTRHLLREWYLQDPYPNPSKKRELAQADGLTPTQVGNWFKNRRQRDR | -0.719 ± 0.18
CFKERTRHLLREWYLQDPYPNPSKKRELAQAVGLTPTQVGNWFKNRRQRDR | -0.294 ± 0.076
CFKERTRHLLREWYLQDPYPNPSKKRELAQAIGLTPTQVGNWFKNRRQRDR | -0.606 ± 0.066
CFKERTRHLLREWYLQDPYPNPSKKRELAQANGLTPTQVGNWFKNRRQRDR | -0.84 ± 0.12
CFKERTRHLLREWYLQDPYPNPSKKRELAQAWGLTPTQVGNWFKNRRQRDR | -0.873 ± 0.13
CFKERTRHLLREWYLQDPYPNPSKKRELAQASGLTPTQVGNWFKNRRQRDR | -0.312 ± 0.053
CFKERTRHLLREWYLQDPYPNPSKKRELAQACGLTPTQVGNWFKNRRQRDR | -0.174 ± 0.11
CFKERTRHLLREWYLQDPYPNPSKKRELAQAGGLTPTQVGNWFKNRRQRDR | -0.863 ± 0.069
CFKERTRHLLREWYLQDPYPNPSKKRELAQAFGLTPTQVGNWFKNRRQRDR | -0.947 ± 0.15
CFKERTRHLLREWYLQDPYPNPSKKRELAQAYGLTPTQVGNWFKNRRQRDR | -0.84 ± 0.26
CFKERTRHLLREWYLQDPYPNPSKKRELAQAKGLTPTQVGNWFKNRRQRDR | -0.932 ± 0.1
CFKERTRHLLREWYLQDPYPNPSKKRELAQAEGLTPTQVGNWFKNRRQRDR | -0.519 ± 0.19
CFKERTRHLLREWYLQDPYPNPSKKRELAQAAGLTPTQVGNWFKNRRQRDR | -0.572 ± 0.089
CFKERTRHLLREWYLQDPYPNPSKKRELAQATGLTPCQVGNWFKNRRQRDR | -0.109 ± 0.095
CFKERTRHLLREWYLQDPYPNPSKKRELAQATGLTPDQVGNWFKNRRQRDR | 0.026 ± 0.078
CFKERTRHLLREWYLQDPYPNPSKKRELAQATGLTPEQVGNWFKNRRQRDR | 0.018 ± 0.081
CFKERTRHLLREWYLQDPYPNPSKKRELAQATGLTPAQVGNWFKNRRQRDR | -0.005 ± 0.066
CFKERTRHLLREWYLQDPYPNPSKKRELAQATGLTQTQVGNWFKNRRQRDR | -0.246 ± 0.094
CFKERTRHLLREWYLQDPYPNPSKKRELAQATGLTCTQVGNWFKNRRQRDR | -0.527 ± 0.11
CFKERTRHLLREWYLQDPYPNPSKKRELAQATGLTWTQVGNWFKNRRQRDR | -0.328 ± 0.047
CFKERTRHLLREWYLQDPYPNPSKKRELAQATGLTDTQVGNWFKNRRQRDR | -0.357 ± 0.12
CFKERTRHLLREWYLQDPYPNPSKKRELAQATGLTFTQVGNWFKNRRQRDR | 0.217 ± 0.082

Variant | abundance fitness
CFKERTRHLLREWYLQDPYPNPSKKRELAQATGLTETQVGNWFKNRRQRDR | 0.065 ± 0.057
CFKERTRHLLREWYLQDPYPNPSKKRELAQATGLTITQVGNWFKNRRQRDR | -0.107 ± 0.083
CFKERTRHLLREWYLQDPYPNPSKKRELAQATGLTKTQVGNWFKNRRQRDR | -0.33 ± 0.092
CFKERTRHLLREWYLQDPYPNPSKKRELAQATGLTVTQVGNWFKNRRQRDR | -0.17 ± 0.058
CFKERTRHLLREWYLQDPYPNPSKKRELAQATGLTRTQVGNWFKNRRQRDR | -0.603 ± 0.047
CFKERTRHLLREWYLQDPYPNPSKKRELAQATGLTLTQVGNWFKNRRQRDR | -0.079 ± 0.05
CFKERTRHLLREWYLQDPYPNPSKKRELAQATGLTYTQVGNWFKNRRQRDR | 0.372 ± 0.061
CFKERTRHLLREWYLQDPYPNPSKKRELAQATGLTATQVGNWFKNRRQRDR | -0.225 ± 0.052
CFKERTRHLLREWYLQDPYPNPSKKRELAQATGLTGTQVGNWFKNRRQRDR | -0.664 ± 0.053
CFKERTRHLLREWYLQDPYPNPSKKRELAQATGLTTTQVGNWFKNRRQRDR | -0.125 ± 0.059
CFKERTRHLLREWYLQDPYPNPSKKRELAQATGLTSTQVGNWFKNRRQRDR | -0.177 ± 0.045
CFKERTRHLLREWYLQDPYPNPSKKRELAQATGLTNTQVGNWFKNRRQRDR | -0.542 ± 0.16
CFKERTRHLLREWYLQDPYPNPSKKRELAQATGLTHTQVGNWFKNRRQRDR | -0.553 ± 0.09
CFKERTRHLLREWYLQDPYPNPSKKRELAQATGTTPTQVGNWFKNRRQRDR | -0.669 ± 0.082
CFKERTRHLLREWYLQDPYPNPSKKRELAQATGQTPTQVGNWFKNRRQRDR | -0.731 ± 0.063
CFKERTRHLLREWYLQDPYPNPSKKRELAQATGFTPTQVGNWFKNRRQRDR | -0.725 ± 0.12
CFKERTRHLLREWYLQDPYPNPSKKRELAQATGMTPTQVGNWFKNRRQRDR | -0.044 ± 0.07
CFKERTRHLLREWYLQDPYPNPSKKRELAQATGSTPTQVGNWFKNRRQRDR | -0.707 ± 0.054
CFKERTRHLLREWYLQDPYPNPSKKRELAQATGNTPTQVGNWFKNRRQRDR | -0.826 ± 0.09
CFKERTRHLLREWYLQDPYPNPSKKRELAQATGGTPTQVGNWFKNRRQRDR | -0.742 ± 0.1
CFKERTRHLLREWYLQDPYPNPSKKRELAQATGATPTQVGNWFKNRRQRDR | -0.911 ± 0.079
CFKERTRHLLREWYLQDPYPNPSKKRELAQATGYTPTQVGNWFKNRRQRDR | -0.587 ± 0.063
CFKERTRHLLREWYLQDPYPNPSKKRELAQATGITPTQVGNWFKNRRQRDR | -0.638 ± 0.072
CFKERTRHLLREWYLQDPYPNPSKKRELAQATGRTPTQVGNWFKNRRQRDR | -0.719 ± 0.078
CFKERTRHLLREWYLQDPYPNPSKKRELAQATGVTPTQVGNWFKNRRQRDR | -0.861 ± 0.076
